US20100130424A1 (Janssen / Centocor, published 2010)
Several values for one entry are separate records, joined by “and”; a condition that tells them apart may be missing. Equal entries are not always repeated. Where two headings read alike, the source gives them in different places. No end group written: not given here. *: point of attachment. Succinimide(1-Et,3-yl) = CCN1C(=O)CC(*)C1=O

T1: human CRH receptor type 2 (human, UniProt Q13324 1-411)
T1 sequence (looked up): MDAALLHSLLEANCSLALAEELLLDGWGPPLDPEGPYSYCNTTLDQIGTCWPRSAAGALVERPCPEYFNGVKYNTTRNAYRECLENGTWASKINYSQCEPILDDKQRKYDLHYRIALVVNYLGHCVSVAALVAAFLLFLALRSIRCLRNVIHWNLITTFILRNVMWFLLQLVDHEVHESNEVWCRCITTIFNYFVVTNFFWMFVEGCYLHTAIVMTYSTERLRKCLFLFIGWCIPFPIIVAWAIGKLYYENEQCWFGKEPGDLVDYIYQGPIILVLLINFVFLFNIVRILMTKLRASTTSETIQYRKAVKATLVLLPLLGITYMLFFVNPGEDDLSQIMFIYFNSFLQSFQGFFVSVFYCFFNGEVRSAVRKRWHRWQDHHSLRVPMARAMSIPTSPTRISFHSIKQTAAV

B1: Cys-variant of stresscopin peptide with N-Ethylsuccinimide (NES) reactive group, SEQ ID NO: 53 (peptide)
peptide: TKFTLSLDVPTNIMNLC(Succinimide(1-Et,3-yl))FNIAKAKNLRAQAAANAHLMAQI-NH2
modifications: N-terminus assumed
SMILES: CC[C@H](C)[C@H](NC(=O)[C@H](CCC(N)=O)NC(=O)[C@H](C)NC(=O)[C@H](CCSC)NC(=O)[C@H](CC(C)C)NC(=O)[C@H](Cc1c[nH]cn1)NC(=O)[C@H](C)NC(=O)[C@H](CC(N)=O)NC(=O)[C@H](C)NC(=O)[C@H](C)NC(=O)[C@H](C)NC(=O)[C@H](CCC(N)=O)NC(=O)[C@H](C)NC(=O)[C@H](CCCNC(=N)N)NC(=O)[C@H](CC(C)C)NC(=O)[C@H](CC(N)=O)NC(=O)[C@H](CCCCN)NC(=O)[C@H](C)NC(=O)[C@H](CCCCN)NC(=O)[C@H](C)NC(=O)[C@@H](NC(=O)[C@H](CC(N)=O)NC(=O)[C@H](Cc1ccccc1)NC(=O)[C@H](CSC1CC(=O)N(CC)C1=O)NC(=O)[C@H](CC(C)C)NC(=O)[C@H](CC(N)=O)NC(=O)[C@H](CCSC)NC(=O)[C@@H](NC(=O)[C@H](CC(N)=O)NC(=O)[C@@H](NC(=O)[C@@H]1CCCN1C(=O)[C@@H](NC(=O)[C@H](CC(=O)O)NC(=O)[C@H](CC(C)C)NC(=O)[C@H](CO)NC(=O)[C@H](CC(C)C)NC(=O)[C@@H](NC(=O)[C@H](Cc1ccccc1)NC(=O)[C@H](CCCCN)NC(=O)[C@@H](N)[C@@H](C)O)[C@@H](C)O)C(C)C)[C@@H](C)O)[C@@H](C)CC)[C@@H](C)CC)C(N)=O
B2: Cys-variant of stresscopin peptide with N-Ethylsuccinimide (NES) reactive group, SEQ ID NO: 54 (peptide)
peptide: TKFTLSLDVPTNIMNC(Succinimide(1-Et,3-yl))LFNIAKAKNLRAQAAANAHLMAQI-NH2
modifications: N-terminus assumed
SMILES: CC[C@H](C)[C@H](NC(=O)[C@H](CCC(N)=O)NC(=O)[C@H](C)NC(=O)[C@H](CCSC)NC(=O)[C@H](CC(C)C)NC(=O)[C@H](Cc1c[nH]cn1)NC(=O)[C@H](C)NC(=O)[C@H](CC(N)=O)NC(=O)[C@H](C)NC(=O)[C@H](C)NC(=O)[C@H](C)NC(=O)[C@H](CCC(N)=O)NC(=O)[C@H](C)NC(=O)[C@H](CCCNC(=N)N)NC(=O)[C@H](CC(C)C)NC(=O)[C@H](CC(N)=O)NC(=O)[C@H](CCCCN)NC(=O)[C@H](C)NC(=O)[C@H](CCCCN)NC(=O)[C@H](C)NC(=O)[C@@H](NC(=O)[C@H](CC(N)=O)NC(=O)[C@H](Cc1ccccc1)NC(=O)[C@H](CC(C)C)NC(=O)[C@H](CSC1CC(=O)N(CC)C1=O)NC(=O)[C@H](CC(N)=O)NC(=O)[C@H](CCSC)NC(=O)[C@@H](NC(=O)[C@H](CC(N)=O)NC(=O)[C@@H](NC(=O)[C@@H]1CCCN1C(=O)[C@@H](NC(=O)[C@H](CC(=O)O)NC(=O)[C@H](CC(C)C)NC(=O)[C@H](CO)NC(=O)[C@H](CC(C)C)NC(=O)[C@@H](NC(=O)[C@H](Cc1ccccc1)NC(=O)[C@H](CCCCN)NC(=O)[C@@H](N)[C@@H](C)O)[C@@H](C)O)C(C)C)[C@@H](C)O)[C@@H](C)CC)[C@@H](C)CC)C(N)=O

Assays:
[1] = target: T1, human CRH receptor type 2; assay: cell-based or functional assay
[2] = target: T1, human CRH receptor type 2; assay: radioligand competition, [125I]-anti-sauvagine-30, membranes of h-CRHR2 SK-N-MC cells
[3] = target: T1, human CRH receptor type 2; assay: cell-based or functional assay; remark: listed apart in the source
[4] = target: T1, human CRH receptor type 2; assay: inferred from the test as antagonist at 10 µM, cAMP assay on h-CRHR2 SK-N-MC cells
[5] = target: T1, human CRH receptor type 2; assay: cell-based or functional assay; remark: listed apart in the source

Molecule	Log DR against h-SCP, cAMP [3]	pA50, cAMP [3]	other results
h-SRP (peptide)	–	–	pA50, cAMP [1]: 9.32 -log M and 9.58 -log M and 9.23 -log M; αmax, cAMP [1]: 114 and 109 and 98.6; pKI [2]: 7.57 -log M
human urocortin 2 (peptide)	–	–	pA50, cAMP [1]: 9.51 -log M; αmax, cAMP [1]: 115 and 129; αmax, cAMP ([1]; scale: % of the maximum response obtained to h-SCP): 117; pKI [2]: 7.74 -log M
TCFTLSLDVPTNIMNLLFNIAKAKNLRAQAAANAHLMAQI-NH2 [Cys-variant CRHR2 peptide agonist, SEQ ID NO: 3]	0.72 log10 ratio	8.97 -log M	–
TKFTLSLDVPCNIMNLLFNIAKAKNLRAQAAANAHLMAQI-NH2 [Cys-variant CRHR2 peptide agonist, SEQ ID NO: 12]	1.72 log10 ratio	7.86 -log M	–
TKFTLCLDVPTNIMNLLFNIAKAKNLRAQAAANAHLMAQI-NH2 [Cys-variant CRHR2 peptide agonist, SEQ ID NO: 7]	2.08 log10 ratio	7.6 -log M	–
TKFTLSLDVCTNIMNLLFNIAKAKNLRAQAAANAHLMAQI-NH2 [Cys-variant CRHR2 peptide agonist, SEQ ID NO: 11]	0.82 log10 ratio	8.76 -log M	–
TKFTLSCDVPTNIMNLLFNIAKAKNLRAQAAANAHLMAQI-NH2 [Cys-variant CRHR2 peptide agonist, SEQ ID NO: 8]	2.86 log10 ratio	~6.82 -log M	–
B1	~2.22 log10 ratio	~7.25 -log M	–
CKFTLSLDVPTNIMNLLFNIAKAKNLRAQAAANAHLMAQI (NES-PEG (about 20 kDa) on Cys 1; C-terminal amide) [Pegylated Cys-variant CRHR2 peptide agonist (NES linker, PEG about 20 kDa), SEQ ID NO: 55]	~1.61 log10 ratio	~7.93 -log M	–
TKFTLSLDVCTNIMNLLFNIAKAKNLRAQAAANAHLMAQI (NES-PEG (about 20 kDa) on Cys 10; C-terminal amide) [Pegylated Cys-variant CRHR2 peptide agonist (NES linker, PEG about 20 kDa), SEQ ID NO: 64]	~2.59 log10 ratio	~6.98 -log M	–
TKFTCSLDVPTNIMNLLFNIAKAKNLRAQAAANAHLMAQI (NES-PEG (about 20 kDa) on Cys 5; C-terminal amide) [Pegylated Cys-variant CRHR2 peptide agonist (NES linker, PEG about 20 kDa), SEQ ID NO: 59]	~2.32 log10 ratio	~7.22 -log M	–
TKCTLSLDVPTNIMNLLFNIAKAKNLRAQAAANAHLMAQI (NES-PEG (about 20 kDa) on Cys 3; C-terminal amide) [Pegylated Cys-variant CRHR2 peptide agonist (NES linker, PEG about 20 kDa), SEQ ID NO: 57]	~1.9 log10 ratio	~7.64 -log M	–
TKFTLSCDVPTNIMNLLFNIAKAKNLRAQAAANAHLMAQI (NES-PEG (about 20 kDa) on Cys 7; C-terminal amide) [Pegylated Cys-variant CRHR2 peptide agonist (NES linker, PEG about 20 kDa), SEQ ID NO: 61]	> 3.32 log10 ratio	~6.22 -log M	–
TKFTLSLCVPTNIMNLLFNIAKAKNLRAQAAANAHLMAQI (NES-PEG (about 20 kDa) on Cys 8; C-terminal amide) [Pegylated Cys-variant CRHR2 peptide agonist (NES linker, PEG about 20 kDa), SEQ ID NO: 62]	> 3.48 log10 ratio	~6.06 -log M	–
TKFTLSLDVPCNIMNLLFNIAKAKNLRAQAAANAHLMAQI (NES-PEG (about 20 kDa) on Cys 11; C-terminal amide) [Pegylated Cys-variant CRHR2 peptide agonist (NES linker, PEG about 20 kDa), SEQ ID NO: 65]	~2.75 log10 ratio	~6.82 -log M	–
TCFTLSLDVPTNIMNLLFNIAKAKNLRAQAAANAHLMAQI (NES-PEG (about 20 kDa) on Cys 2; C-terminal amide) [Pegylated Cys-variant CRHR2 peptide agonist (NES linker, PEG about 20 kDa), SEQ ID NO: 56]	~2.34 log10 ratio	~7.2 -log M	–

Molecule	Log DR against h-SCP, cAMP [3]	pA50, cAMP [3]	other results
TKFTLCLDVPTNIMNLLFNIAKAKNLRAQAAANAHLMAQI (NES-PEG (about 20 kDa) on Cys 6; C-terminal amide) [Pegylated Cys-variant CRHR2 peptide agonist (NES linker, PEG about 20 kDa), SEQ ID NO: 60]	> 3.22 log10 ratio	~6.32 -log M	–
TKFTLSLDCPTNIMNLLFNIAKAKNLRAQAAANAHLMAQI (NES-PEG (about 20 kDa) on Cys 9; C-terminal amide) [Pegylated Cys-variant CRHR2 peptide agonist (NES linker, PEG about 20 kDa), SEQ ID NO: 63]	~2.12 log10 ratio	~7.45 -log M	–
TKFCLSLDVPTNIMNLLFNIAKAKNLRAQAAANAHLMAQI (NES-PEG (about 20 kDa) on Cys 4; C-terminal amide) [Pegylated Cys-variant CRHR2 peptide agonist (NES linker, PEG about 20 kDa), SEQ ID NO: 58]	~2.4 log10 ratio	~7.14 -log M	–
TKFTLSLCVPTNIMNLLFNIAKAKNLRAQAAANAHLMAQI-NH2 [Cys-variant CRHR2 peptide agonist, SEQ ID NO: 9]	1.89 log10 ratio	7.8 -log M	–
TKFTLSLDCPTNIMNLLFNIAKAKNLRAQAAANAHLMAQI-NH2 [Cys-variant CRHR2 peptide agonist, SEQ ID NO: 10]	1.3 log10 ratio	8.28 -log M	–
TKFTCSLDVPTNIMNLLFNIAKAKNLRAQAAANAHLMAQI-NH2 [Cys-variant CRHR2 peptide agonist, SEQ ID NO: 6]	0.61 log10 ratio	9.07 -log M	–
TKCTLSLDVPTNIMNLLFNIAKAKNLRAQAAANAHLMAQI-NH2 [Cys-variant CRHR2 peptide agonist, SEQ ID NO: 4]	1.03 log10 ratio	8.65 -log M	–
CKFTLSLDVPTNIMNLLFNIAKAKNLRAQAAANAHLMAQI-NH2 [Cys-variant CRHR2 peptide agonist, SEQ ID NO: 2]	0.72 log10 ratio	8.97 -log M	–
TKFCLSLDVPTNIMNLLFNIAKAKNLRAQAAANAHLMAQI-NH2 [Cys-variant CRHR2 peptide agonist, SEQ ID NO: 5]	0.76 log10 ratio	8.93 -log M	–
B2	-0.08 log10 ratio	9.55 -log M	–
SLDVPTNIMNLLFNIAKAKNLRAQAAANAHLMAQI-NH2 [CRHR2 peptide agonist with shortened amino acid sequence, 35aa, SEQ ID NO: 110]	–	–	KA (receptor affinity, in µM) [4]: > 10 µM
DVPTNIMNLLFNIAKAKNLRAQAAANAHLMAQI-NH2 [CRHR2 peptide agonist with shortened amino acid sequence, 33aa, SEQ ID NO: 112]	–	–	KA (receptor affinity, in µM) [4]: > 10 µM
TLSLDVPTNIMNLLFNIAKAKNLRAQAAANAHLMAQI-NH2 [CRHR2 peptide agonist with shortened amino acid sequence, 37aa, SEQ ID NO: 108]	–	–	pA50, cAMP [5]: 8.49 -log M; αmax, cAMP [5]: 106 % of the maximum response to h-SCP
LDVPTNIMNLLFNIAKAKNLRAQAAANAHLMAQI-NH2 [CRHR2 peptide agonist with shortened amino acid sequence, 34aa, SEQ ID NO: 111]	–	–	KA (receptor affinity, in µM) [4]: > 10 µM
KFTLSLDVPTNIMNLLFNIAKAKNLRAQAAANAHLMAQI-NH2 [CRHR2 peptide agonist with shortened amino acid sequence, 39aa, SEQ ID NO: 107]	–	–	pA50, cAMP [5]: 9.25 -log M; αmax, cAMP [5]: 111 % of the maximum response to h-SCP
